The text below walks through data of article PMC8299537 (Nature, 2021).

The assay addresses T1, PYD and CARD-deleted NLRP1 (NLRP1ΔΔ), molecule A of the ternary complex (human, UniProt Q9C000-1 148-1364).
T1 sequence (looked up): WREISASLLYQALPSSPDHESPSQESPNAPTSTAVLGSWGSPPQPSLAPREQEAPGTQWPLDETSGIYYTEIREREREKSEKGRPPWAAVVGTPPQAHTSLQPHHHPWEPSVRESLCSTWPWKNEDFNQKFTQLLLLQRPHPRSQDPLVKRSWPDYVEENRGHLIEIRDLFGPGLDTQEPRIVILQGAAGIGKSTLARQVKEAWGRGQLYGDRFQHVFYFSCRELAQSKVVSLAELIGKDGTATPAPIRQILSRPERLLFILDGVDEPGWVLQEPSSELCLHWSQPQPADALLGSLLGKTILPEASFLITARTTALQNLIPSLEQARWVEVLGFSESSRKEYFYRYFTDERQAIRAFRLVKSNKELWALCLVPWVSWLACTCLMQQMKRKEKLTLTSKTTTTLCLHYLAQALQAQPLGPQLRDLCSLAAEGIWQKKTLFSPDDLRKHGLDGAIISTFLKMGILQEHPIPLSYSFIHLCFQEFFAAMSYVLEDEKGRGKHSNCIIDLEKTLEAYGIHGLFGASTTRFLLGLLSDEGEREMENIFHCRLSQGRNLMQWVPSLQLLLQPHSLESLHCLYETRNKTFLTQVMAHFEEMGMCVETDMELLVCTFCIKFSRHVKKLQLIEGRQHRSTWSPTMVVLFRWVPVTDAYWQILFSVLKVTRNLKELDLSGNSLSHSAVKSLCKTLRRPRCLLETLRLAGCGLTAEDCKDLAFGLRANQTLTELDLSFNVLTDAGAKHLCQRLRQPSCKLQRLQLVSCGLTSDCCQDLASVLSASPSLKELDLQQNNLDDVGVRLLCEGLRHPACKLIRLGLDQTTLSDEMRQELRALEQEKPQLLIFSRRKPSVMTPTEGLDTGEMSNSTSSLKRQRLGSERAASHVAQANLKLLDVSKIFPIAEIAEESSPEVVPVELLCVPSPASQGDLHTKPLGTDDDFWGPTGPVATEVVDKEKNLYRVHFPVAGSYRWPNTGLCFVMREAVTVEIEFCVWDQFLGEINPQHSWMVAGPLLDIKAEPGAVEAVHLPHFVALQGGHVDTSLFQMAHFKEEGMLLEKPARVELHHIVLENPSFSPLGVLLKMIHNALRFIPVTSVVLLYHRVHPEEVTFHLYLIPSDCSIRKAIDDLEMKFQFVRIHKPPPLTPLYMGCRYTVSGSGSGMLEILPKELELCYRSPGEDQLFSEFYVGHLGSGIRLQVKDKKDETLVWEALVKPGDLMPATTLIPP
Kind of assay: cryo-EM structure.

B1: DPP9, short isoform (His-TEV-DPP9), co-purified with NLRP1ΔΔ (enzyme, human)
chain: MATTGTPTADRGDAAATDDPAARFQVQKHSWDGLRSIIHGSRKYSGLIVNKAPHDFQFVQKTDESGPHSHRLYYLGMPYGSRENSLLYSEIPKKVRKEALLLLSWKQMLDHFQATPHHGVYSREEELLRERKRLGVFGITSYDFHSESGLFLFQASNSLFHCRDGGKNGFMVSPMKPLEIKTQCSGPRMDPKICPADPAFFSFINNSDLWVANIETGEERRLTFCHQGLSNVLDDPKSAGVATFVIQEEFDRFTGYWWCPTASWEGSEGLKTLRILYEEVDESEVEVIHVPSPALEERKTDSYRYPRTGSKNPKIALKLAEFQTDSQGKIVSTQEKELVQPFSSLFPKVEYIARAGWTRDGKYAWAMFLDRPQQWLQLVLLPPALFIPSTENEEQRLASARAVPRNVQPYVVYEEVTNVWINVHDIFYPFPQSEGEDELCFLRANECKTGFCHLYKVTAVLKSQGYDWSEPFSPGEDEFKCPIKEEIALTSGEWEVLARHGSKIWVNEETKLVYFQGTKDTPLEHHLYVVSYEAAGEIVRLTTPGFSHSCSMSQNFDMFVSHYSSVSTPPCVHVYKLSGPDDDPLHKQPRFWASMMEAASCPPDYVPPEIFHFHTRSDVRLYGMIYKPHALQPGKKHPTVLFVYGGPQVQLVNNSFKGIKYLRLNTLASLGYAVVVIDGRGSCQRGLRFEGALKNQMGQVEIEDQVEGLQFVAEKYGFIDLSRVAIHGWSYGGFLSLMGLIHKPQVFKVAIAGAPVTVWMAYDTGYTERYMDVPENNQHGYEAGSVALHVEKLPNEPNRLLILHGFLDENVHFFHTNFLVSQLIRAGKPYQLQIYPNERHSIRCPESGEHYEVTLLHFLQEYL
Consider B1, for which the binding result is “binds”.

B2: NLRP1-CT derived from NLRP1ΔΔ (UPA subdomain only), molecule B of the ternary complex (domain or fragment, human, UniProt Q9C000-1 1213-1364, looked up)
chain: SPLGVLLKMIHNALRFIPVTSVVLLYHRVHPEEVTFHLYLIPSDCSIRKAIDDLEMKFQFVRIHKPPPLTPLYMGCRYTVSGSGSGMLEILPKELELCYRSPGEDQLFSEFYVGHLGSGIRLQVKDKKDETLVWEALVKPGDLMPATTLIPP
B2: the binding result is on record as “binds”.
